Ends that are not written are not given here.

The target in assay [1] is M2pd (modified M2 containing amino acids from Ala-8P to Ala326) (human) (UniProt P56817). As to the kind of experiment: cell-based or functional assay.
Assay [2] deals with T1, recombinant memapsin 2 (human, UniProt P56817 14-454, limits assumed).
T1 construct: also called M2; beta-secretase
Briefly: enzyme inhibition with a synthetic fluorogenic peptide substrate.

The target in assay [3] is T1, recombinant memapsin 2. As to the kind of experiment: comparison of inhibition constants.
The target of assay [4] is T1, recombinant memapsin 2. As to the kind of experiment: Ki as stated in the crystallisation example; assay not described there.

T1 sequence (P56817 14-454 limits assumed): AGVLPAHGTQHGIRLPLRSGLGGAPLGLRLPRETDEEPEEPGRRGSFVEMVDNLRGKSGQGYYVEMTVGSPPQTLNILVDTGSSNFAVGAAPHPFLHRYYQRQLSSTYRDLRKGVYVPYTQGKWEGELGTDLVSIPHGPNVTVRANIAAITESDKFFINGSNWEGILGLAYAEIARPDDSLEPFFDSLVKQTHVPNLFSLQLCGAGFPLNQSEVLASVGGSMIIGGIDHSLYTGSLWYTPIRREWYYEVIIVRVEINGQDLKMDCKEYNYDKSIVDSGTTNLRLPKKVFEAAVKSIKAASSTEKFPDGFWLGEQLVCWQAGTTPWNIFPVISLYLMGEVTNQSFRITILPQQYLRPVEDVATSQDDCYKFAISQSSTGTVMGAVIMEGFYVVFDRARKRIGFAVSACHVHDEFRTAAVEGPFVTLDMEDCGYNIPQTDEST
Chain of M2pd (modified M2 containing amino acids from Ala-8P to Ala326) (human) (P56817 22-501 limits assumed): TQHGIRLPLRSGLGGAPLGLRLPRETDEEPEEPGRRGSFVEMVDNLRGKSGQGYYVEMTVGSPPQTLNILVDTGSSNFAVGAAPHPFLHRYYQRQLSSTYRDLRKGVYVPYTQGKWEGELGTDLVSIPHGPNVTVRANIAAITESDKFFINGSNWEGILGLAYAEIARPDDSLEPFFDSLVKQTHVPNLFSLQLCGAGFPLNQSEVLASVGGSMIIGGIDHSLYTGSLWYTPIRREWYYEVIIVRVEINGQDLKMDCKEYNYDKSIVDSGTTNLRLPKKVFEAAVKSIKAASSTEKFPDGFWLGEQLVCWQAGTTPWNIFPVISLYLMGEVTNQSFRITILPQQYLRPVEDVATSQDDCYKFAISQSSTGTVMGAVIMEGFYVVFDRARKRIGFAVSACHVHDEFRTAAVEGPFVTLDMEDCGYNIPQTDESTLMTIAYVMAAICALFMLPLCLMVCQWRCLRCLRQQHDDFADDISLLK

In assay [1], Pepstatin A (peptide) came in with an IC50 (inhibition of enzyme activity) of 0.3 mM.

With OM99-1 (peptide), the inhibition constant Ki – broadly, a measure of affinity in units of concentration, obtained from inhibition or displacement – in the assay with recombinant memapsin 2 [2] worked out at 30 nM.

As to VNLAAEF (also: Leu3-Ala4 bond replaced by hydroxyethylene isostere -CH(OH)-CH2-) [OM99-2 with P4 Glu absent], in the assay with recombinant memapsin 2 [3], the fold increase in Ki against OM99-2 was 10 fold.

B1: OM99-2 (peptide)
peptide: EVNLAAEF
modifications: also: Leu4-Ala5 peptide bond replaced by hydroxyethylene isostere -CH(OH)-CH2-
notes: Synthetic substrate analogue based on the beta-secretase site of Swedish mutant APP
As for B1, in the assay with recombinant memapsin 2 [4], the inhibitory constant (Ki) was determined as 10 nM.

The record behind these values is patent EP1496124A1 (Oklahoma Medical Research Foundation, dated 2005).
